Assay results from publication PMC9986870.

Target: Alexa Fluor 488 labeled α-synuclein (UniProt P37840)
Assay: MST; apparent; constant 50 nM αS-AF488, dilution series of 16 HSA concentrations (50 μM to 6.25 nM); 10 mM Na2HPO4, 1.8 mM KH2PO4, 137 mM NaCl, 2.7 mM KCl, pH 7.4; Monolith NT.115, LED power 20%, MST power 20, 40 and 80%, data normalised and averaged

Kd: 300 nM
Substance: human serum albumin (from UniProt P02768 25-609) (natural protein)
